We go through 1 molecule from patent US20210403586A1, “MUTANT OF RANKL AND PHARMACEUTICAL COMPOSITION COMPRISING SAME FOR PREVENTING OR TREATING OSTEOPOROSIS” (INDUSTRY-ACADEMIC COOPERATION FOUNDATION CHOSUN UNIVERSITY, priority 2018, published 2021).

For one test, the system named is BMMs. The experiment in a line: F-actin ring formation assay. Type of test: cell-based, mouse. The note with it: mRANKL-MT3 150 ng/mL. As for the experimental part:
We used bone-resorption and F-actin ring formation assays to investigate osteoclast activity. To observe bone resorption in vitro, BMMs were cultured in Corning Osteo Assay Surface 96-well Multiple Well Plates (Sigma) with 30 ng/mL M-CSF and 75 ng/mL sRANKL (soluble RANKL; R&D Systems) or isolated RANKL for 6 days. Then, the plates were washed with pure water. To monitor actin ring formation, BMMs were grown on glass slides. After culture, the cells were fixed with 4% formalin, permeabilized with 0.5% Triton X100 in PBS for 5 min at room temperature, and incubated with 0.5 mg/mL TRITC-labelled phalloidin for 30 min. The cells were then rinsed with PBS. F-actin rings were visualized using a fluorescence ECLIPSE Ts2R microscope (Nikon, Tokyo, Japan).

The next test relates to RANKL. The experiment in a line: Western blot of serum for antibodies after mtRANKL immunization. Type of test: in vivo, mouse. The note with it: mice immunized 3 times with 0.2 mg mtRANKL with aluminum hydroxide adjuvant. As for the experimental part:
Proteins were separated by SDS-PAGE and electropermeated into a nitrocellulose membrane (Bio-Rad). After blocking the membrane with 5% (weight/volume) skim milk in TBST [10 mM Tris (pH 7.5), 150 mM NaCl, 0.1% (vol/vol) Tween 20], each mouse serum for primary antibody in the blocking solution was examined. The membrane was washed three times with Tris buffered saline. […] peroxidase (HRP)-conjugated secondary antibody was diluted 1:5000 with TBST in 1% (wt/vol) skim milk powder. ECL_system (Amersham Pharmacia Biotech) was used as the membrane.
17-week-old […] BALB/c mice were equally divided into 3 groups. The group was divided into a negative control group in which PBS was intraperitoneally injected, a group in which only wtRANKL was injected, and a group in which wtRANKL was injected after immunization with mtRANKL for 52 days. mtRANKL was injected after mixing with an aluminum hydroxide adjuvant. The immunization process started with 1st immunization of mtRANKL at 52 days, 2nd immunization at 39 days, 3rd immunization at 14 days each before injection of wtRANKL, and a total of 3 immunizations was performed. The amount of mtRANKL was 0.2 mg per mouse.
To determine whether antibodies were produced due to mtRANKL immunization, Western blot of Reference Example 4 was performed on the collected serum, and the results are shown in FIG. 6A.
A general note: Immunoblotting shows a protein as a band on a membrane.

B1: mRANKL-MT3: mouse RANKL mutant: K180R, D189I, R190K, H223F, H224Y; nucleic acid SEQ ID NO: 3 (protein, UniProt O35235 158-316, looked up, variant K180R D189I R190K H223F H224Y)
chain: KPEAQPFAHLTINAASIPSGSHRVTLSSWYHIKGWAKISNMTLSNGKLRVNQDGFYYLYANICFRFYETSGSVPTDYLQLMVYVVKTSIKIPSSHNLMKGGSTKNWSGNSEFHFYSINVGGFFKLRAGEEISIQVSNPSLLDPDQDATYFGAFKVQDID
As for B1, the F-actin ring formation result in the test on BMMs is listed as “no resorption pits or F-actin rings were observed”. For the same molecule, the “antibodies in serum (Western blot)” value in the test on RANKL is on record as “antibodies were detected”.
